In paper PMC10978960, “Structure, function and substrate preferences of archaeal S-adenosyl-L-homocysteine hydrolases” (Communications Biology, 2024):

B1: S-adenosyl-L-homocysteine hydrolase from Pyrococcus furiosus (enzyme)
chain: MDCGKDYCVKDLSLAEEGWKKIDWVSRFMPVLQYIKREFEEKKPFKGVRIAATLHLEMKTAFLLLTLKAGGAEVSAAASNPLSTQDDVVAALAKAGVKVYAIRGESREQYYEFMHKALDIRPNIIIDDGADMISLVHKERQEMLDEIWGGSEETTTGVIRLRAMEKAGILKFPVIAVNDSYMKYLFDNRYGTGQSTWDGIMRATNLLIAGKNVVVVGYGWCGRGIAMRARGLGATVIVVEVDPIKALEARMDGFLVMDMKEAAKIGDIFVTATGNIKCIRREHFELMKDGAIMANAGHFDVEIWKPDLEKLAVEINNPRPNVTEYKLKDGRRLYLLADGRLVNLVAADGHPAEIMDMSFALQAKAAEYIKDNHERLEPKVYILPREIDEMVARIKLESMGIKIEELTEEQKKYLESWEHGT
notes: S-adenosyl-L-homocysteine hydrolase (SAHH) of Pyrococcus furiosus; gene bought as a synthetic DNA string and cloned into pET28a(+); The tag counts as kept because protein concentration was determined with the molecular weight including the His6-tag and no cleavage step is described; One sample was heated at 95 °C for 15 min before crystallisation (8QNO); also called PfuSAHH; SAHH; source: E. coli …
B2: S-adenosyl-L-homocysteine hydrolase from Mus musculus (enzyme)
chain: MSDKLPYKVADIGLAAWGRKALDIAENEMPGLMRMREMYSASKPLKGARIAGCLHMTVETAVLIETLVALGAEVRWSSCNIFSTQDHAAAAIAKAGIPVFAWKGETDEEYLWCIEQTLHFKDGPLNMILDDGGDLTNLIHTKYPQLLSGIRGISEETTTGVHNLYKMMSNGILKVPAINVNDSVTKSKFDNLYGCRESLIDGIKRATDVMIAGKVAVVAGYGDVGKGCAQALRGFGARVIITEIDPINALQAAMEGYEVTTMDEACKEGNIFVTTTGCVDIILGRHFEQMKDDAIVCNIGHFDVEIDVKWLNENAVEKVNIKPQVDRYWLKNGRRIILLAEGRLVNLGCAMGHPSFVMSNSFTNQVMAQIELWTHPDKYPVGVHFLPKKLDEAVAEAHLGKLNVKLTKLTEKQAQYLGMPINGPFKPDHYRY
notes: S-adenosyl-L-homocysteine hydrolase (SAHH, adenosylhomocysteinase) of Mus musculus; gene bought as a synthetic DNA string and cloned into pET28a(+); The tag counts as kept because protein concentration was determined with the molecular weight including the His6-tag and no cleavage step is described; also called MmSAHH; SAHH; source: E. coli BL21-Gold(DE3), purified (nickel-NTA, PD-10 desalting)
B3: S-adenosyl-L-homocysteine hydrolase from Methanococcus maripaludis (enzyme)
chain: MSNVKDMSLAPSGHLKMEWAKRHMPVLCRIAEEFKNDKPFEGLTIGMALHLEAKTAILAETLLEGGAKIVITGCNPLSTQDDVAAACVEKGMEVYAWRGETNEEYYENLNKVLDSNPDIIIDDGADLIFLIHTERTELIGKIMGGCEETTTGIIRLKSMAEEGALKFPVVNVNDAYTKHLFDNRYGTGQSAMDGIIRTTNLLIAGKNVVVGGYGWCGRGVASRAAGHGANVIITEVNPIRALEAKMDGFTVLKMEEAAKIGDIFVTTTGCKDILRMEHFLLMKDGAVLSNAGHFDNEINKNDLKELSKSVKEARFNIEEYDLGNKKIYLLGEGRLVNLACADGHPCEVMDMSFANQALSAKFIKENKGKLENEVYEIPYEQDFKIALLKLHSMGADIDELSPEQRKYLSDWKEGT
notes: S-adenosyl-L-homocysteine hydrolase (SAHH) of Methanococcus maripaludis; gene bought as a synthetic DNA string and cloned into pET28a(+); The tag counts as kept because protein concentration was determined with the molecular weight including the His6-tag and no cleavage step is described; also called MmaSAHH; SAHH; source: E. coli BL21-Gold(DE3), purified (nickel-NTA, PD-10 desalting)
B4: S-adenosyl-L-homocysteine hydrolase from Sulfolobus acidocaldarius (enzyme)
chain: MDYRVKDLSLAEQGRKQIEWAELHMPALMEIRKRFNAEKPLDGIRIGAVLHVTKETAVLVETLKAGGAEIALAGSNPLSTQDDVAAGLAKNGIHVYAWRGETEKDYYDNIREILKYEPHVIMDDGGDLHAYVHENNLTSKIVGGTEETTTGVIRLKAMEEEKVLKYPVIAVNNAFTKYLFDNRIGTGQSTIDGILRATNILIAGKVAVVIGYGWVGRGIASRFKGMGARVIVVESSPFRALEALMDGFDVMTMNRASEIGDIFVTATGNLNVVSRDHILRMKDGAVLANSGHFNVEIDVKGLKEISVETREVRQNLEEYKLRNGKRIYLLADGRLVNLVAAEGHPSEVMDLSFCNQALSVEHLIKNKGKLENKVYNVPIEIDEQVARLKLKALGIEIEELTIEQKEYIKQWKYGT
notes: S-adenosyl-L-homocysteine hydrolase (SAHH) of Sulfolobus acidocaldarius; gene bought as a synthetic DNA string and cloned into pET28a(+); The tag counts as kept because protein concentration was determined with the molecular weight including the His6-tag and no cleavage step is described; also called SacSAHH; SAHH; source: E. coli BL21-Gold(DE3), purified (nickel-NTA, PD-10 desalting)

Target: the molecule itself
Experiment: crystal structure; co-crystals of the purified enzyme with co-purified NAD+ and a nucleoside ligand (inosine, SIH or adenosine), sitting drop vapour diffusion at room temperature or 22 °C; tetramers built in the respective space groups and analysed with PDBePISA

Stoichiometry N, 4:
B1
B2
B3
B4
